{
  "source": "paper PMC4790445",
  "about": "(Nature structural & molecular biology, 2015)",
  "binders": {"B1": {"name": "unphosphorylated Mig6 segment 1+2 (residues 330-399) (domain or fragment, human, UniProt Q9UJM3 330-399, looked up)", "chain": "SRTPSPKSLPSYLNGVMPPTQSFAPDPKYVSSKALQRQNSEGSASKVPCILPIIENGKKVSSTHYYLLPE"}},
  "molecular_target": "WT EGFR kinase (residues 696-1022) (human, UniProt P00533 696-1022)",
  "assay": "kinase inhibition kinetics",
  "data": [
    {"binder": "B1", "values": [
      {"measurement": "Ki", "value": "10 to 20", "unit": "nM"}
    ]}
  ]
}
